The record followed here is US20120294865A1 (REGENTS OF THE UNIVERSITY OF MICHIGAN, published 2012).

The target of assay [1] is T1, peptide of SEQ ID NO: 32 (YANNPRVVFNLNTYK) (human).
T1 construct: 15-mer on a peptide microarray (ProImmune)
T1 peptide: YANNPRVVFNLNTYK
Briefly: peptide microarray, fluorescent secondary antibody. The method, then:
(§1) Epitope mapping was performed by incubating monoclonal antibody (mAb) samples with a peptide microarray, followed by incubation with a fluorescent-labelled secondary antibody. After washing, the microarray was scanned in a high-resolution scanning system. The peptide microarray consisted of a set of 15-mer peptides overlapping by 10 residues taken from the human alpha-2 integrin subunit (Genbank accession number AAM34795.1; amino acid residues 1-1133 were used). Peptide arrays, antibody incubations, scanning and data analysis were generated by ProImmune Inc, 4281 Express Lane, Suite L2378, Sarasota, Fla. 34238.

Assay [2] has as its target T2, peptide of SEQ ID NO: 33 (AIASIPTERYFFNVS) (human).
T2 construct: 15-mer on a peptide microarray (ProImmune)
T2 peptide: AIASIPTERYFFNVS
Briefly: peptide microarray, fluorescent secondary antibody. Here is the method:
as §1

B1: Ab 770.8 (antibody, V domains shown)
VH: EVKLEESGTVLARPGASVKMSCKASGYSFTSYWMHWVKQRPGQGLEWIGAFYPGNSEDKYNENFKIKAKLTAVTSVNTVYMELSSLTSEDSAVYYCTRGTTLVAPGFDVWGAGTTVTVSS
VL: DIVMTQSPAILSVSPGERVSFSCRASQSIGTSIHWYQQRTNGSPRLLIKYVSESISGIPSRFSGSGSGTDFTLTINSVESEDIADYYCQHSNRWPLTFGAGTKLELKR
notes: Mouse monoclonal antibody from a hybridoma, used as ascites or purified
Consider B1, for which the binding result in assay [1] and in assay [2] was “binds” throughout.

B2: Ab 778.17 (antibody, V domains shown)
VH: QVQLQQPGAELVRPGTSVKLSCKASGYTFASYWMNWVSQRPEQGLEWIGRIDPYDSETHYNQKFKDKAILTVDKSSSTAYIQLNSLTSEDSAVYYCARLGRGPFAYWGQGTLVTVSA
VL: DIVMTQTPTSLAVSLGQRATISCRASESVDSYDNSFMYWYQQKPGQPPKLLIYFASNLESGVPARFSGSGSRTDFTLTIDPVEADDAATYYCQQNNEDPYTFGGGTKLEIKR
notes: Mouse monoclonal antibody from a hybridoma
With B2, the binding result in assay [1] and in assay [2] was “binds” throughout.
